Data reported in patent US20220153832A1 (PIONYR IMMUNOTHERAPEUTICS, published 2022).
Values belong to the binder of their own block, whether it stands above or below them.

Columns and labels:
[1] = biological target: T1, Cynomolgus MARCO, full length, on cells (cynomolgus, UniProt A0A2K5X0Z2 1-519); assay: flow cytometry, 293T (CyMARCO)
T1 construct: whole, on cells; also called cyno MARCO; CyMARCO
T1 sequence: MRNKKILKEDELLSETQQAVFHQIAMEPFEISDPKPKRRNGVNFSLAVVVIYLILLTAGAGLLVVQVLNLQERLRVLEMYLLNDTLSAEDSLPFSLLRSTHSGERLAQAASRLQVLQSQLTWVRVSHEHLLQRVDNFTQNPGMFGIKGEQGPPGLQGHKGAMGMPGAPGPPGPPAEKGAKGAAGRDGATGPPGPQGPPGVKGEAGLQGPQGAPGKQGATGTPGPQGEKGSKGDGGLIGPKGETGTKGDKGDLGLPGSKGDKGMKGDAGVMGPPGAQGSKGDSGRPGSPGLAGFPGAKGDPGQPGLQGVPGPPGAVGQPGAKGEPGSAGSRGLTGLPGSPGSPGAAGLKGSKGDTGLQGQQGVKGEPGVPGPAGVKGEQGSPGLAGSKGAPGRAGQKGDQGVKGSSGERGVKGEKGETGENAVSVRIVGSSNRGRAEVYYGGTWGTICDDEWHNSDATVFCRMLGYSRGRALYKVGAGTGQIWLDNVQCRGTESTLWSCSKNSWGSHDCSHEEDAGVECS
Procedure: Supernatants were removed and cell pellets were resuspended in Ca²⁺+ and Mg²⁺+ Dulbecco's phosphate-buffered saline (D-PBS) at 1×10⁶ cells/ml. 100,000 cells/well were plated onto U-bottom 96-well plates for staining and all centrifugation steps were performed at 1500 rpm at 4° C. for 5 min and samples were kept protected from light throughout the protocol. Cells were pelleted and resuspended in 100 μl of Zombie NIR viability dye (BioLegend) prepared by diluting Zombie NIR dimethyl sulfoxide (DMSO) stock 1000-fold in D-PBS. […] Flow cytometry data were analyzed using FlowJo software (version 10.6.1) and data were processed and further analyzed in Microsoft Excel and GraphPad Prism software (version 8). Half-maximal effective concentrations (EC₅₀) were calculated based on geometric mean fluorescence intensities (gMFI). In case when the plates were not able to be analyzed on the cytometer, cells were pelleted after the washes and fixed in 100 μl of 2% paraformaldehyde (PFA), prepared by diluting the 16% (w/v) stock (Thermo Fisher) in DPBS, for 15 min at RT. […]

[2] = biological target: T2, N-terminally polyhistidine tagged human MARCO ECD (147-520), recombinant (human, UniProt Q9UEW3 147-520); assay: ELISA readout A450-A620; the panel names no target, the legend says MARCO expressing cells; transiently made reference antibody
T2 construct: also called PI-RG-3000; recombinant human MARCO; not shown: N-terminal polyhistidine tag
T2 sequence: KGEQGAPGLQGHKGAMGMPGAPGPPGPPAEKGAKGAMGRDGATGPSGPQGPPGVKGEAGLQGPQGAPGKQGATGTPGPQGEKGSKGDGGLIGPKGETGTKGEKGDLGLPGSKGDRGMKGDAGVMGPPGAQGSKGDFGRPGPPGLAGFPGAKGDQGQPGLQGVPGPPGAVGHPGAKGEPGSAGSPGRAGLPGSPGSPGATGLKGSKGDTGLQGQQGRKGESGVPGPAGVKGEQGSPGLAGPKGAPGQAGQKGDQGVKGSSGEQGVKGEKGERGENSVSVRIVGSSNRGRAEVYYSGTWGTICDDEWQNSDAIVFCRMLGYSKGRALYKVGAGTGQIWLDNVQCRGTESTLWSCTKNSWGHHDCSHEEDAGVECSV

[3] = biological target: T1, Cynomolgus MARCO, full length, on cells; assay: flow cytometry, cells overexpressing cyno MARCO
mVar3 (RG3028) = biological target: T3, mVar3 (RG3028) (mouse, UniProt Q60754 150-518); assay: binding to variant proteins, data not shown
T3 construct: Mouse MARCO with the human residues Q452, Y472 and K473 (already in the entry)
T3 chain: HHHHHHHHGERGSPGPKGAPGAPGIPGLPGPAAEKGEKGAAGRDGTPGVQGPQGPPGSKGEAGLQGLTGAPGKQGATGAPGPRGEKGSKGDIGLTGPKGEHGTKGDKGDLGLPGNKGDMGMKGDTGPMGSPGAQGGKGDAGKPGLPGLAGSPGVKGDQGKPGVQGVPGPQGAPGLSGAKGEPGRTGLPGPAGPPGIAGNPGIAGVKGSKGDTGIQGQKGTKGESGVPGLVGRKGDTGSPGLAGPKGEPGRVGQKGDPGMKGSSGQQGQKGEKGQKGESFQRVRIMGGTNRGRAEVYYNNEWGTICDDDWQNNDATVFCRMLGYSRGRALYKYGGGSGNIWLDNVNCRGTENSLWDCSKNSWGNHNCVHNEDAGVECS
Procedure, shortened: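 Binding to MARCO variant proteins was measured by biolayer interferometry at 37° C in ProbeLife kinetics buffer. Antibodies (200 nM) were captured on anti-mouse or anti-human Fc probes for 120 s between 60 s baselines. This was followed by association with 200 nM variant antigen and 5-10 minutes dissociation.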

EC50 [1]: 0.51 nM
B1: PI-HX-3031 (antibody)
heavy: QVQLKESGPGLVQPSQTLSLTCTVSGFSLTSYHVSWVRQPPGKGLEWMGAIWTGGSIAYNSLLKSRLSISRDTSKSQVFLKMNSLQTEDTATYYCARDLSDYYSSYTSFDYWGQGVMVTVSTAETTAPSVYPLAPGTALKSNSMVTLGCLVKGYFPEPVTVTWNSGALSSGVHTFPAVLQSGLYTLTSSVTVPSSTWSSQAVTCNVAHPASSTKVDKKIVPRECNPCGCTGSEVSSVFIFPPKTKDVLTITLTPKVTCVVVDISQNDPEVRFSWFIDDVEVHTAQTHAPEKQSNSTLRSVSELPIVHRDWLNGKTFKCKVNSGAFPAPIEKSISKPEGTPRGPQVYTMAPPKEEMTQSQVSITCMVKGFYPPDIYTEWKMNGQPQENYKNTPPTMDTDGSYFLYSKLNVKKETWQQGNTFTCSVLHEGLHNHHTEKSLSHSP
light: DIQMTQSPASLSTSLGETVSIECLASEGISNDLAWYQQKSGKSPQLLIYAASRLQDGVPSRFSGSGSGTRYSLKISGMQPEDEADYFCQQSYKYPLTFGSGTKLEIKRADAAPTVSIFPPSTEQLATGGASVVCLMNNFYPRDISVKWKIDGTERRDGVLDSVTDQDSKDSTYSMSSTLSLTKADYESHNLYTCEVVHKTSSSPVVKSFNRNEC
notes: Parental rat hybridoma, rat IgG2a

EC50 (read off the curve) [2]: ~0.2 nM
B2: PI-3015-AB (antibody, human IgG1, kappa)
heavy: not shown
light: DIQMTQSPSSLSASVGDRVTITCRASEGISNDLAWYQQKPGKAPKLLIYAASRLQSGVPSRFSGSGSGTDYTLTISSMQPEDFATYYCQQSYKYPLTFGQGTKLEIKRTVAAPSVFIFPPSDEQLKSGTASVVCLLNNFYPREAKVQWKVDNALQSGNSQESVTEQDSKDSTYSLSSTLTLSKADYEKHKVYACEVTHQGLSSPVTKSFNRGEC

EC50 [3]: 0.34 nM
binding result (mVar3 (RG3028)): binds
B3: PI-3010-AB (antibody, human IgG1, kappa)
heavy: not shown
light: DIQMTQSPASLSTSLGETVSIECLASEGISNDLAWYQQKSGKSPQLLIYAASRLQDGVPSRFSGSGSGTRYSLKISGMQPEDEADYFCQQSYKYPLTFGSGTKLEIKRTVAAPSVFIFPPSDEQLKSGTASVVCLLNNFYPREAKVQWKVDNALQSGNSQESVTEQDSKDSTYSLSSTLTLSKADYEKHKVYACEVTHQGLSSPVTKSFNRGEC
